Laboratory results reported in patent publication US20210139917.

B1: peptide cyclization enzyme from Goodfellowiella coeruleoviolacea NBRC 14988 (protein)
chain: VPNEQDLGSLLARLAERHRVPGAQLSVCHDSASVTVVTGRERHGAATPVTARSAFPLGSLTKPFTAALAMVLVADGDLDLDEPVAGYHPGVTLRRLLSHTAGLESNVDEQAAAGVPRRRWVTRYPARLAPEHPPGTVFSYSNVGYLLAGHLVEEVTGLDWAEAVESVLLRPLGITPAFVVGAAGSRGVVCGHVLTDDRVLPVAEQVMPEVEAPNGALALSSADLLAFAALFSANSPAPDVLDPATAALMCQDQLADVRVGPYGMADGWGLGWARYRGAGADWFGHDGTGDGTSCHLRFDPERGTAVALTTNGSTGAALWRELCAELAERHVLPPEWGREPGEATPVAGPPDGAGHYANGPAEFVVTRQDDDGLALVLDGAQAVPLTCLPDLRFQLRLGTTVLSGRFLRDPDTGGIDHIQVTGRLARRRQVTG
B2: peptide cyclization enzyme from Streptomyces noursei NBRC 15452 (protein)
chain: VHGDSADPAGYGAGDGSPLDLDLDRLARDCDVAGGQLAVHHHGVLETWEFGEEEPGAGRPVHSATAFPYGSTTKVCTATSVLQLVGDGDLDLDRPVREWLPEAGTVPEARRDHPALAATLRQLLSHTAGLPSDHDDADASSLRRWLTGFLAAPADARPAPGTFSYSNVGYGIAGRVVESVTGLPWYEAVRDYLLRPLGTAITALPAEPGSLPAGGLAGSAADLVRLGLLHIAEPGRPDLADPAALGEATRPTAGADPFGLADGWGPGLGHFGPAEDRWLGHDGTLDGATCHLRIHPRRGTVIALTTNSPTGQALWDAVVGALRDAGIDVGVYRPAPPPSLAQGGAPAGAAAFADCTGTYRNGDLAVTVGLDGPHLVLELPGGARELAEPLARRTFAARGAGAFLGRFAVDARTGAVHALQYSGRTLLRDTGRAHGARPH
B3: recombinant SurE protein (peptide cyclization enzyme derived from Streptomyces albidoflavus NBRC 12854) (protein)
chain: VGAEGAERDAVGALFEELVREHRVTGAQLSVYRDGALSEYATGLASVRTGEPVTPRTGFPFGSVTKFLTAELVMQFVCDGDLDLDDPLAGLLPDLGRAAGPPLGTATVRQLLSHTAGVVDSIEYDEMRGPSYRRFAAACARQPALFPPGLAFSYSNTGYCLLGAVIEAASGMDWWTAMDSCLLRPLGIEPAFLHDPRPGQGGAARPVAEGHALRAGGERAEHVDHMASLSLAAAGGLVGSATDLVTAARPHLADRKTFAQHDLLPEDAVLAMRTCVPDAEPFGLADGWGLGLMRHGTGDGAWYGHDGAVGGASCNLRIHPDRSLALALTANSTAGPKLWEALVARLPEAGLDVGHYALPVPDSAPLAPDAGHLGTYANGDLELMVTHDAAGDLFLTRESYSDYRLSLHEDDLFVARSGEPGALPITGRFVREHPAGPVALLQYGGRAMHRL

Key:
[1] = biological target: SB(L8A)-SNAC, peptide in which D-Leu at the C-terminus of SB-SNAC is substituted with D-Ala
[2] = biological target: SB(L8F)-SNAC, peptide in which D-Leu at the C-terminus of SB-SNAC is substituted with D-Phe
[3] = biological target: substrate peptide 3 (SB-SNAC), SNAC body indicated with 3 in FIG. 2a
[4] = biological target: longer peptide (11 amino acid residues, SNAC body)
[5] = biological target: methyl ester of the compound indicated with 3 in FIG. 2a
[6] = biological target: shorter peptide (7 amino acid residues, SNAC body)
[7] = biological target: substrate in which Ile at the N-terminus of the compound indicated in 3 of FIG. 2a is substituted with L-Trp
[8] = biological target: substrate peptide (SNAC body) shown in FIG. 4

Protein	peptide cyclization reaction, HPLC [1]	peptide cyclization reaction, HPLC [2]	peptide cyclization reaction, HPLC [3]	kcat/KM of the cyclization reaction relative to substrate 3 of FIG. 2a [2]	peptide cyclization reaction (data not shown) [4]	peptide cyclization reaction [5]	peptide cyclization reaction (data not shown) [6]	kcat/KM of the cyclization reaction relative to substrate 3 of FIG. 2a [7]	peptide cyclization reaction, HPLC and mass spectrometry (extracted ion chromatogram) [8]	peptide cyclization reaction, HPLC analysis of the product [3]
B1	the two enzymes produced cyclized peptides from three substrates	the two enzymes produced cyclized peptides from three substrates	the two enzymes produced cyclized peptides from three substrates	–	–	–	–	–	–	–
B2	the two enzymes produced cyclized peptides from three substrates	the two enzymes produced cyclized peptides from three substrates	the two enzymes produced cyclized peptides from three substrates	–	–	–	–	–	–	–
B3	–	–	–	two to five times higher than the kcat/KM value obtained when the compound indicated with 3 in FIG. 2a was used as a substrate	a cyclized product was observed to be obtained by the recombinant SurE	even when the methyl ester was used as a substrate, the same cyclized product as in the case of using the SNAC body was produced	a cyclized product was observed to be obtained by the recombinant SurE	two to five times higher than the kcat/KM value obtained when the compound indicated with 3 in FIG. 2a was used as a substrate	a product having a molecular weight corresponding to the molecular weight (m/z 1038.8) of a cyclized product of Surugamide F (cyclic Surugamide F) was detected	cyclized the substrate peptide to give a cyclized peptide 1 (Surugamide B) as a single product
